Non-standard residues stand in square brackets, D forms with d. *: point of attachment. Arg(NO2) = N=C(NCCC[C@H](N)C(=O)O)N[N+](=O)[O-]; OiPr = CC(C)O*
Assay: Effect of pH value on the stability of the solution (purity)
Type: physicochemical
Settings: for Purity(%) from day 0-14: 25° C.; for Purity(%) at day 1 / Purity(%) at day 30 / Purity(%) at day 90 / Purity(%) at day 180 / Purity(%) at day 360: 5% solution
[1] = 25% ethanol (after multiple recrystalization), pH 3.7, 25° C.
[2] = 25% ethanol with 0.5 equivalent sodium acetate, pH 3.7, 25° C.
[3] = 25% ethanol with 1 equivalent sodium acetate, pH 4.6, 25° C.
[4] = 25% ethanol with 1.5 equivalent sodium acetate, pH 5.6, 25° C.
[5] = 25% ethanol with HCl, pH 2.0, 25° C.
[6] = 25% ethanol with NaOH, pH 7, 25° C.
[7] = 25% ethanol with NaOH, pH 8, 25° C.
[8] = 25% ethanol with HCl, pH 1.0, 25° C.

For `CCN(CC)CCOC(=O)c1ccccc1OC(C)=O.O=C(O)/C=C\C(=O)O` [A-1, 2-(diethylamino)ethyl acetylsalicylate•maleic acid salt], the “Purity(%) from day 0-14” value (day 14, pH 1.0, 7% in water) was 59.1 ± 0.4%, the “Purity(%) from day 0-14” value (day 14, pH 2.0, 7% in water) was 78.8 ± 0.3% and the “Purity(%) from day 0-14” value (day 14, pH 3.0, 7% in water) was 90.9 ± 0.2%. The “Purity(%) from day 0-14” value (day 14, pH 3.7, 7% in water) was 94.0 ± 0.3%, the “Purity(%) from day 0-14” value (day 14, pH 4.0, 7% in water) was 94.5 ± 0.2% and the “Purity(%) from day 0-14” value (day 14, pH 4.3, 7% in water) was 94.6 ± 0.3%. For the same molecule, the “Purity(%) from day 0-14” value (day 14, pH 4.6, 7% in water) was 94.3 ± 0.2%, the “Purity(%) from day 0-14” value (day 14, pH 5.0, 7% in water) was 86.9 ± 0.3% and the “Purity(%) from day 0-14” value (day 14, pH 6.0, 7% in water) was 78.9 ± 0.3%. The “Purity(%) from day 0-14” value (day 14, pH 7.0, 7% in water) was 57.8 ± 0.4% and the “Purity(%) from day 0-14” value (day 14, pH 8.0, 7% in water) was 16.1 ± 0.4%.
For “H-Ala-Pro-Gly-Pro-Arg(NO2)—OCH2CH3•HCl salt (H-APGP[Arg(NO2)]-OEt; also: HCl salt)”, the “Purity(%) at day 1” value [1] was 98.1 ± 0.2%, the “Purity(%) at day 30” value [1] was 97.3 ± 0.2% and the “Purity(%) at day 90” value [1] was 95.0 ± 0.1%. The “Purity(%) at day 180” value [1] was 91.2 ± 0.3%, the “Purity(%) at day 1” value [2] was 98.2 ± 0.1% and the “Purity(%) at day 30” value [2] was 97.4 ± 0.2%. The “Purity(%) at day 90” value [2] was 95.1 ± 0.3%, the “Purity(%) at day 180” value [2] was 91.2 ± 0.3% and the “Purity(%) at day 1” value [3] was 98.2 ± 0.2%. The “Purity(%) at day 30” value [3] was 97.3 ± 0.2%, the “Purity(%) at day 90” value [3] was 95.0 ± 0.3% and the “Purity(%) at day 180” value [3] was 91.1 ± 0.3%. For the same molecule, the “Purity(%) at day 1” value [4] was 98.1 ± 0.2%, the “Purity(%) at day 30” value [4] was 94.7 ± 0.2% and the “Purity(%) at day 90” value [4] was 91.5 ± 0.3%. For the same molecule, the “Purity(%) at day 180” value [4] was 83.7 ± 0.3%, the “Purity(%) at day 1” value [5] was 97.8 ± 0.1% and the “Purity(%) at day 30” value [5] was 84.2 ± 0.2%. The “Purity(%) at day 90” value [5] was 69.6 ± 0.2%, the “Purity(%) at day 180” value [5] was 39.9 ± 0.3% and the “Purity(%) at day 1” value [6] was 97.9 ± 0.2%. For the same molecule, the “Purity(%) at day 30” value [6] was 55.2 ± 0.3%, the “Purity(%) at day 90” value [6] was 31.3 ± 0.3% and the “Purity(%) at day 180” value [6] was 0%. For the same molecule, the “Purity(%) at day 1” value [7] was 97.5 ± 0.1%, the “Purity(%) at day 30” value [7] was 22.6 ± 0.2% and the “Purity(%) at day 90” value [7] was 0%. For the same molecule, the “Purity(%) at day 180” value [7] was 0%, the “Purity(%) at day 1” value (25% ethanol, pH 3.0, 25° C.) was 98.1 ± 0.2% and the “Purity(%) at day 30” value (25% ethanol, pH 3.0, 25° C.) was 95.7 ± 0.3%. For the same molecule, the “Purity(%) at day 90” value (25% ethanol, pH 3.0, 25° C.) was 92.8 ± 0.3% and the “Purity(%) at day 180” value (25% ethanol, pH 3.0, 25° C.) was 86.0 ± 0.3%.
In the case of “H-Tyr-Gly-Gly-Phe-Met-OCH(CH3)2•HCl salt”, the “Purity(%) at day 1” value [1] is reported as 98.9 ± 0.2%, the “Purity(%) at day 30” value [1] is reported as 98.3 ± 0.2% and the “Purity(%) at day 90” value [1] is reported as 97.2 ± 0.1%. For the same molecule, the “Purity(%) at day 180” value [1] was 95.4 ± 0.1%, the “Purity(%) at day 360” value [1] was 92.3 ± 0.2% and the “Purity(%) at day 1” value [2] was 98.9 ± 0.1%. For the same molecule, the “Purity(%) at day 30” value [2] was 98.4 ± 0.1%, the “Purity(%) at day 90” value [2] was 97.3 ± 0.2% and the “Purity(%) at day 180” value [2] was 95.5 ± 0.2%. The “Purity(%) at day 360” value [2] was 92.5 ± 0.2%, the “Purity(%) at day 1” value [3] was 98.9 ± 0.2% and the “Purity(%) at day 30” value [3] was 98.4 ± 0.2%. The “Purity(%) at day 90” value [3] was 97.4 ± 0.2%, the “Purity(%) at day 180” value [3] was 95.5 ± 0.2% and the “Purity(%) at day 360” value [3] was 92.4 ± 0.2%. For the same molecule, the “Purity(%) at day 1” value [4] was 98.8 ± 0.2%, the “Purity(%) at day 30” value [4] was 97.2 ± 0.2% and the “Purity(%) at day 90” value [4] was 94.1 ± 0.1%. The “Purity(%) at day 180” value [4] was 88.7 ± 0.2%, the “Purity(%) at day 360” value [4] was 81.1 ± 0.3% and the “Purity(%) at day 1” value [5] was 98.5 ± 0.1%. For the same molecule, the “Purity(%) at day 30” value [5] was 92.1 ± 0.2%, the “Purity(%) at day 90” value [5] was 85.1 ± 0.2% and the “Purity(%) at day 180” value [5] was 71.9 ± 0.2%. For the same molecule, the “Purity(%) at day 360” value [5] was 51.8 ± 0.2%, the “Purity(%) at day 1” value [6] was 98.5 ± 0.3% and the “Purity(%) at day 30” value [6] was 77.9 ± 0.2%. For the same molecule, the “Purity(%) at day 90” value [6] was 43.6 ± 0.2%, the “Purity(%) at day 180” value [6] was 24.3 ± 0.3% and the “Purity(%) at day 360” value [6] was 0%. For the same molecule, the “Purity(%) at day 1” value [7] was 98.2 ± 0.2%, the “Purity(%) at day 30” value [7] was 56.2 ± 0.2% and the “Purity(%) at day 90” value [7] was 33.3 ± 0.3%. For the same molecule, the “Purity(%) at day 180” value [7] was 5.8 ± 0.3%, the “Purity(%) at day 360” value [7] was 0% and the “Purity(%) at day 1” value (25% ethanol, pH 3.0, 25° C.) was 98.7 ± 0.2%. For the same molecule, the “Purity(%) at day 30” value (25% ethanol, pH 3.0, 25° C.) was 97.9 ± 0.2%, the “Purity(%) at day 90” value (25% ethanol, pH 3.0, 25° C.) was 95.1 ± 0.1% and the “Purity(%) at day 180” value (25% ethanol, pH 3.0, 25° C.) was 90.9 ± 0.2%. For the same molecule, the “Purity(%) at day 360” value (25% ethanol, pH 3.0, 25° C.) was 82.8 ± 0.3%.
In the case of “H-Val-Pro-Gly-Pro-Arg(NO2)—OCH(CH3)2•HCl salt (H-VPGP[Arg(NO2)]-OiPr; also: HCl salt)”, the “Purity(%) at day 1” value [1] is reported as 98.6 ± 0.2%, the “Purity(%) at day 30” value [1] is reported as 98.1 ± 0.2% and the “Purity(%) at day 90” value [1] is reported as 97.2 ± 0.1%. The “Purity(%) at day 180” value [1] was 95.4 ± 0.1%, the “Purity(%) at day 360” value [1] was 92.1 ± 0.2% and the “Purity(%) at day 1” value [2] was 98.6 ± 0.2%. For the same molecule, the “Purity(%) at day 30” value [2] was 98.2 ± 0.1%, the “Purity(%) at day 90” value [2] was 97.1 ± 0.2% and the “Purity(%) at day 180” value [2] was 95.6 ± 0.2%. For the same molecule, the “Purity(%) at day 360” value [2] was 92.0 ± 0.2%, the “Purity(%) at day 1” value [3] was 98.6 ± 0.2% and the “Purity(%) at day 30” value [3] was 98.2 ± 0.2%. The “Purity(%) at day 90” value [3] was 97.0 ± 0.1%, the “Purity(%) at day 180” value [3] was 95.6 ± 0.2% and the “Purity(%) at day 360” value [3] was 92.1 ± 0.2%. The “Purity(%) at day 1” value [4] was 98.5 ± 0.2%, the “Purity(%) at day 30” value [4] was 97.0 ± 0.2% and the “Purity(%) at day 90” value [4] was 93.8 ± 0.1%. The “Purity(%) at day 180” value [4] was 88.1 ± 0.2%, the “Purity(%) at day 360” value [4] was 80.1 ± 0.3% and the “Purity(%) at day 1” value [8] was 98.3 ± 0.2%. For the same molecule, the “Purity(%) at day 30” value [8] was 85.0 ± 0.2%, the “Purity(%) at day 90” value [8] was 59.5 ± 0.2% and the “Purity(%) at day 180” value [8] was 43.5 ± 0.3%. The “Purity(%) at day 360” value [8] was 17.6 ± 0.3%, the “Purity(%) at day 1” value [5] was 98.4 ± 0.2% and the “Purity(%) at day 30” value [5] was 91.7 ± 0.2%. The “Purity(%) at day 90” value [5] was 84.7 ± 0.3%, the “Purity(%) at day 180” value [5] was 71.7 ± 0.3% and the “Purity(%) at day 360” value [5] was 52.7 ± 0.3%. For the same molecule, the “Purity(%) at day 1” value [6] was 98.3 ± 0.3%, the “Purity(%) at day 30” value [6] was 78.1 ± 0.4% and the “Purity(%) at day 90” value [6] was 44.1 ± 0.4%. For the same molecule, the “Purity(%) at day 180” value [6] was 25.1 ± 0.4%, the “Purity(%) at day 360” value [6] was 0% and the “Purity(%) at day 1” value [7] was 98.0 ± 0.3%. For the same molecule, the “Purity(%) at day 30” value [7] was 56.3 ± 0.3%, the “Purity(%) at day 90” value [7] was 32.3 ± 0.4% and the “Purity(%) at day 180” value [7] was 3.9 ± 0.4%. The “Purity(%) at day 360” value [7] was 0%, the “Purity(%) at day 1” value (25% ethanol, pH 3.0, 25° C.) was 98.5 ± 0.1% and the “Purity(%) at day 30” value (25% ethanol, pH 3.0, 25° C.) was 97.4 ± 0.2%. The “Purity(%) at day 90” value (25% ethanol, pH 3.0, 25° C.) was 94.7 ± 0.1%, the “Purity(%) at day 180” value (25% ethanol, pH 3.0, 25° C.) was 90.7 ± 0.2% and the “Purity(%) at day 360” value (25% ethanol, pH 3.0, 25° C.) was 82.7 ± 0.3%.
